Measurements as given in article PMC9482634, “Structural mechanism of tapasin-mediated MHC-I peptide loading in antigen presentation” (Nature Communications, 2022).

T1: human tapasin, lumenal domain (Gly1-Glu381), as used in the SPR experiments with the PaSta Fabs (Homo sapiens (human))
T1 construct: human tapasin, lumenal domain, residues Gly1 to Glu381; the construct encodes the signal peptide too, the protein is secreted; for the SPR with the Fabs nothing is said; also called TPN; source: Drosophila S2 cells, purified from culture medium (chelate agarose, SEC, anion exchange)
T1 chain: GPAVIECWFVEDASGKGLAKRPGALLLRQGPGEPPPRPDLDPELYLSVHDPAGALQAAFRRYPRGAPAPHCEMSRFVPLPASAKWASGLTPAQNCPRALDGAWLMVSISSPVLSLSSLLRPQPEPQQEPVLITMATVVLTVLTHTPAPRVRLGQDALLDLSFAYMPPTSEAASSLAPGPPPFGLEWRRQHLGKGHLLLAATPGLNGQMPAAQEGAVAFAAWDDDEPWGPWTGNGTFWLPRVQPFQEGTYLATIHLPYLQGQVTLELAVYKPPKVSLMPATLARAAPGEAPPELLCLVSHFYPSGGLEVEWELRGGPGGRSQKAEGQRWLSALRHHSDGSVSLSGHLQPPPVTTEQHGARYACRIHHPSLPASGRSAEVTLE


What was measured:
Settings in all cases: both partners purified
[1] = biological target: T1, human tapasin, lumenal domain …; experiment: SPR; PaSta2 Fab (panel c) or PaSta1 Fab (panel d) immobilised on a CM5 chip, tapasin captured on it, the other Fab injected at 62.5 to 4000 nM; fit to a 1:1 binding model (BiaEval 3.1); 25 °C, 10 mM HEPES pH 7.4, 150 mM NaCl, 3 mM EDTA, 0.05% Surfactant P20, 30 µL/min
[2] = biological target: T2, human tapasin lumenal domain (Gly1-Glu381), BirA and 6X His sequences removed with 3C protease (human, UniProt O15533); experiment: crystal structure; tapasin–PaSta1 Fab complex, PDB 7TUF, 2.8 Å; crystals grown in 10% PEG 4000, 0.1 M Hepes, pH 7.5
T2 construct: Residues of the 3C site may remain at the C-terminus after cleavage; source: Drosophila S2 cells, purified from the culture media (chelate agarose, SEC, anion exchange), treated with 3C protease; not shown: 6X HIS, C-terminal, cleaved

[3] = biological target: T3, human tapasin lumenal domain (Gly1-Glu381), state of the C-terminal tags not stated (human, UniProt O15533); experiment: SPR; Fab of PaSta1 or PaSta2 covalently coupled onto CM5 chips (about 200 RU); tapasin 0.06 µM to 4 µM injected; 25 °C; 10 mM HEPES pH 7.4, 150 mM NaCl, 3 mM EDTA, 0.05% Surfactant P20; 30 µL/min; 1:1 binding model
T3 construct: Tapasin as injected over the Fab surfaces in SPR and as added in the NMR experiments; source: Drosophila S2 cells, purified from the culture media (chelate agarose, SEC, anion exchange)

[4] = biological target: T2, human tapasin lumenal domain …; experiment: crystal structure; tapasin–PaSta2 Fab complex, PDB 7TUG, 3.9 Å; crystals grown in 17% PEG 10000, 0.1 M Bis-Tris, pH 5.5, 0.1 M Am acetate
[5] = biological target: parental HLA-B*44:05 refolded with hβ2m and the peptide … (human | ); experiment: SPR; biotinylated tapasin captured (200 RU) on a streptavidin chip; MHC-I offered in graded concentrations (15.6 nM to 500 nM for B44:02–9mer and B44:05-T73C–6mer, 1 µM to 16 µM for B44:05–9mer); 25 °C; 10 mM HEPES pH 7.4, 150 mM NaCl, 3 mM EDTA, 0.05% Surfactant P20; 30 µL/min; global fit to a 1:1 binding model; n = 3

Kd [1] | binding result [3] | Binder | other results
1.1 nM |  | PaSta1 Fab (anti-tapasin monoclonal antibody PaSta1) (Fab, V domains shown, heavy chain of the Fab in PDB 7TUF (ends after the second cysteine of the hinge, then His6); light chain of the Fab in PDB 7TUF; also called Pt1; Pt1H; source: Expi293F, transfected, purified from culture supernatant (TALON, SEC)) VH: DVQLQESGPGLVIPSQSLSLTCTVTGYSITTDYAWNWIRQFPGNRLEWMGYISSSGVTVYNPSLKSRISITRDTSKNQFFLQLISVTTEDTATYYCARRGYYRYDSIDYWGQGTTLTVSS VL: QIVLSQSPAILSASPGEKVTMTCRATSSVSYIHWYQQKPGSSPKPWIYATSSLTSGVPVRFSGSGSGTSYSLTISRVEAEDAATYYCQQWSSNPPTFGGGTKLEIK | 
 | binds | Fab fragment of the anti-tapasin monoclonal antibody PaSta1 (Fab, V domains shown, H chain of PaSta1 in PDB 7TUF (deposited here); the Fab H chain ends after the second cysteine in the hinge region, followed by the 6X HIS tag; L chain of PaSta1 in PDB 7TUF (deposited here); The L chain search model had VL and Cκ; also called PaSta1 (Fab); Pt1; source: Expi293F cells, transfected, purified from culture supernatants (TALON, SEC)) VH: DVQLQESGPGLVIPSQSLSLTCTVTGYSITTDYAWNWIRQFPGNRLEWMGYISSSGVTVYNPSLKSRISITRDTSKNQFFLQLISVTTEDTATYYCARRGYYRYDSIDYWGQGTTLTVSS VL: QIVLSQSPAILSASPGEKVTMTCRATSSVSYIHWYQQKPGSSPKPWIYATSSLTSGVPVRFSGSGSGTSYSLTISRVEAEDAATYYCQQWSSNPPTFGGGTKLEIK | binding result [2]: binds
1.6 nM |  | PaSta2 Fab (anti-tapasin monoclonal antibody PaSta2) (Fab, V domains shown, heavy chain of the Fab in PDB 7TUG and 7TUH (ends after the second cysteine of the hinge, then His6); light chain of the Fab in PDB 7TUG and 7TUH; also called Pt2; Pt2H; source: Expi293F, transfected, purified from culture supernatant (TALON, SEC)) VH: QVQLQQSGAELVRPGTSVKMSCKAAGYTFTNYWIGWIKQRPGHGLEWIGDIYPGGGYTNYNEKFKVKATLTADTSSVTAYMQLSSLTSEDSAIYYCTREGNYGFAYWGQGTLVTVSA VL: not shown | 
 | binds | Fab fragment of the anti-tapasin monoclonal antibody PaSta2 (Fab, V domains shown, H chain of PaSta2 in PDB 7TUG and 7TUH (deposited here); the Fab H chain ends after the second cysteine in the hinge region, followed by the 6X HIS tag; L chain of PaSta2 in PDB 7TUG and 7TUH (deposited here); also called PaSta2 (Fab); Pt2; source: Expi293F cells, transfected, purified from culture supernatants (TALON, SEC)) VH: QVQLQQSGAELVRPGTSVKMSCKAAGYTFTNYWIGWIKQRPGHGLEWIGDIYPGGGYTNYNEKFKVKATLTADTSSVTAYMQLSSLTSEDSAIYYCTREGNYGFAYWGQGTLVTVSA VL: not shown | binding result [4]: binds
 |  | human tapasin lumenal domain (Gly1-Glu381), biotinylated at its C-terminal BirA sequence (domain or fragment, UniProt O15533 21-401, looked up, biotin at the C-terminal BirA sequence, Tapasin as captured on the streptavidin chip for SPR; also called biotinylated tapasin; source: Drosophila S2 cells, purified from the culture media (chelate agarose, SEC, anion exchange)) GPAVIECWFVEDASGKGLAKRPGALLLRQGPGEPPPRPDLDPELYLSVHDPAGALQAAFRRYPRGAPAPHCEMSRFVPLPASAKWASGLTPAQNCPRALDGAWLMVSISSPVLSLSSLLRPQPEPQQEPVLITMATVVLTVLTHTPAPRVRLGQDALLDLSFAYMPPTSEAASSLAPGPPPFGLEWRRQHLGKGHLLLAATPGLNGQMPAAQEGAVAFAAWDDDEPWGPWTGNGTFWLPTVQPFQEGTYLATIHLPYLQGQVTLELAVYKPPKVSLMPATLARAAPGEAPPELLCLVSHFYPSGGLEVEWELRGGPGGRSQKAEGQRWLSALRHHSDGSVSLSGHLQPPPVTTEQHGARYACRIHHPSLPASGRSAEVTLE | Kd [5]: 1310 nM
